Assay results as given in patent US20140363833.

B1: FVIIa (Haematologic Technologies) (protein)
chain: ANAFLEELRPGSLERECKEEQCSFEEAREIFKDAERTKLFWISYSDGDQCASSPCQNGGSCKDQLQSYICFCLPAFEGRNCETHKDDQLICVNENGGCEQYCSDHTGTKRSCRCHEGYSLLADGVSCTPTVEYPCGKIPILEKRNASKPQGRIVGGKVCPKGECPWQVLLLVNGAQLCGGTLINTIWVVSAAHCFDKIKNWRNLIAVLGEHDLSEHDGDEQSRRVAQVIIPSTYVPGTTNHDIALLRLHQPVVLTDHVVPLCLPERTFSERTLAFVRFSLVSGWGQLLDRGATALELMVLNVPRLMTQDCLQQSRKVGDSPNITEYMFCAGYSDGSKDSCKGDSGGPHATHYRGTWYLTGIVSWGQGCATVGHFGVYTRVSQYIEWLQKLMRSEPRPGVLLRAPFP

Experiments:
[1] = test system: T1, fluorophore-labeled thrombin substrate (fPR-x-S extended with glycine spacers and a C-terminal cysteine) on nanoworms
T1 sequence: GGFPRSGGGC

[2] = test system: T2, D-isomer of the MMP9 substrate PLGVRGK on nanoworms
T2 sequence: PLGVRGK

[3] = test system: T3, fluorescein-labeled thrombin-cleavable substrate PLGLRSW on nanoworms
T3 sequence: PLGLRSW

[4] = test system: T4, D-stereoisomer of the thrombin substrate PLGLRSW on nanoworms
T4 sequence: PLGLRSW

[5] = biological target: T5, fluorophore-labeled thrombin substrate (fPR-x-S extended with glycine spacers and a C-terminal cysteine) on nanoworms (not fully specified)
T5 chain: GGFPRSGGGC

| Molecule | sample fluorescence (fluorogenic NW protease assay) [1] | other results |
| --- | --- | --- |
| FIXa (Haematologic Technologies) | negligible proteolysis was observed from the panel of non-cognate proteases |  |
| FXIa (Haematologic Technologies) | negligible proteolysis was observed from the panel of non-cognate proteases |  |
| FXa (Haematologic Technologies) | negligible proteolysis was observed from the panel of non-cognate proteases |  |
| activated protein C (Haematologic Technologies) | negligible proteolysis was observed from the panel of non-cognate proteases |  |
| recombinant MMP9 (R&D Systems) |  | sample fluorescence (fluorogenic NW protease assay) [2]: no activity when the broad-spectrum MMP inhibitor Marimastat or D-isomer substrates were used |
| recombinant thrombin (Haematologic Technologies) |  | sample fluorescence (fluorogenic NW protease assay) [3]: observed a rapid increase in sample fluorescence as cleaved peptide fragments released into solution fluoresced freely; sample fluorescence (fluorogenic NW protease assay) [4]: No increase in fluorescence was observed in the presence of Argatroban, a direct thrombin inhibitor, or when the substrate was synthesized with protease-resistant D-stereoisomers |
| B1 |  | sample fluorescence (fluorogenic NW protease assay) [5]: negligible proteolysis was observed from the panel of non-cognate proteases |
